In US20070009442A1, “Macrocyclic metal complexes and their use for the production of conjugates with biomolecules” (priority 2001, published 2007):

Experiments:
[1] = Relaxivity of the conjugates in plasma; assay type: physicochemical; details: +37° C., 20 MHz, relaxivity per mol of gadolinium calculated from the measured values
Protocol: (§1) As comparison substances, Gd-DTPA (1) with the formula: [drawing 16] and Gd-GlyMeDOTA (2) with the formula: [drawing 17] which were reacted in each case with bovine serum albumin (BSA), were used.
(§2) The measurements were made in each case in aqueous solution and in plasma at +37° C. and a frequency of 20 MHz. The results are summarized in Table 2 below, whereby the indicated relaxivities per mol of gadolinium were calculated from the measured values: […]

[2] = Relaxivity of the conjugates in aqueous solution; assay type: physicochemical; details: +37° C., 20 MHz, relaxivity per mol of gadolinium calculated from the measured values
Protocol: as §1, §2

Gd-GlyMeDOTA [Vergleichssubstanz 2]
R1 (Plasma) [1]: 20.8 L/mmol/s | R1 (H2O) [2]: 18.3 L/mmol/s
